According to patent publication US20210388110A1 (published 2021):
Changes are numbered by the printed parent chain. Values belong to the binder of their own block, whether it stands above or below them.

Molecular target: T1, soluble human CD3ε chain (human, UniProt P07766 23-126, limits assumed)
T1 construct: the text says soluble human CD3ε chain; also called human CD3 epsilon chain
Assay: SPR (Biacore)

T1 sequence (P07766 23-126 limits assumed): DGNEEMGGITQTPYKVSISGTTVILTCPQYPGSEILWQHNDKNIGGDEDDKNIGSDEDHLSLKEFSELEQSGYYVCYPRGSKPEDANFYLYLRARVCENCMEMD

Kd: 0.0348 µM
B3: TR01H040-E22Hh/none-Hi-Kn010G3/L0011-k0 (antibody, human IgG1, kappa, L234A L235A, N297A)
heavy: QVQLVESGGGLVQPGRSLRLSCAASGFTFSNAWMHWVRQAPGKGLEWVAQIKDKSQNYATYYAESVKGRFTISRADSKNSIYLQMNSLKTEDTAVYYCRYVHYSASYGVDAWGQGTTVTVSSASTKGPSVFPLAPSSKSTSGGTAALGCLVKDYFPEPVTVSWNSGALTSGVHTFPAVLQSSGLYSLSSVVTVPSSSLGTQTYICNVNHKPSNTKVDKKVEPKSCDKTHTCPPCPAPEAAGGPSVFLFPPKPKDTLMISRTPEVTCVVVDVSHEDPEVKFNWYVDGVEVHNAKTKPREEQYASTYRVVSVLTVLHQDWLNGKEYKCKVSNKALPAPIEKTISKAKGQPREPQVYTLPPSRCELTKNQVSLSCAVKGFYPSDIAVEWESNGQPENNYKTTPPVLDSDGSFFLVSKLTVDKSRWQQGNVFSCSVMHEALHNHYTQKSLSLSPDYKDDDDK
chain: EPKSSDKTHTCPPCPAPELLGGPSVFLFPPKPKDTLMISRTPEVTCVVVDVSHEDPEVKFNWYVDGVEVHNAKTKPREEQYNSTYRVVSVLTVLHQDWLNGKEYKCKVSNKALPAPIEKTISKAKGQPREPQVCTLPPSRDELTKNQVSLWCLVKGFYPSDIAVEWESNGQPENNYKTTPPVLDSDGSFFLYSKLTVDKSRWQQGNVFSCSVMHEALHNRYTQKSLSLSP
light: DIVMTQSPLSLPVTPGEPASISCRSSQPLVHSNRNTYLHWYQQKPGQAPRLLIYKVSNRFSGVPDRFSGSGSGTDFTLKISRVEAEDVGVYYCGQGTQVPYTFGQGTKLEIKRTVAAPSVFIFPPSDEQLKSGTASVVCLLNNFYPREAKVQWKVDNALQSGNSQESVTEQDSKDSTYSLSSTLTLSKADYEKHKVYACEVTHQGLSSPVTKSFNRGEC
notes: single-arm

Kd: 0.00506 µM
B8: TR01H040-E22Hh/none-Hi-Kn010G3/L0210-k0 (antibody, human IgG1, kappa, L234A L235A, N297A)
heavy: B3 heavy
chain: B3 chain
light: B3 light with P28S, L29P, N35W, G94Y
notes: single-arm

Kd: 0.00322 µM
B10: TR01H040-E22Hh/none-Hi-Kn010G3/L0211-k0 (antibody, human IgG1, kappa, L234A L235A, N297A)
heavy: B3 heavy
chain: B3 chain
light: B3 light with L29P, G94Y
notes: single-arm

Kd: 0.00693 µM
B11: TR01H037-E22Hh/none-Hi-Kn010G3/L0000-k0 (antibody, human IgG1, kappa, L234A L235A, N297A)
heavy: B3 heavy with H35P, D53G, Q56N, A111I
chain: B3 chain
light: B3 light with P28S
notes: single-arm

Kd: 0.0201 µM
B12: TR01H040-E22Hh/none-Hi-Kn010G3/L0213-k0 (antibody, human IgG1, kappa, L234A L235A, N297A)
heavy: B3 heavy
chain: B3 chain
light: B3 light with P28S, L29P, L38I, S61R
notes: single-arm

Kd: 0.0026 µM
B14: TR01H040-E22Hh/none-Hi-Kn010G3/L0207-k0 (antibody, human IgG1, kappa, L234A L235A, N297A)
heavy: B3 heavy
chain: B3 chain
light: B3 light with P28S, L29P, S61R, G94Y
notes: single-arm

Kd: 0.0342 µM
B22: TR01H040-E22Hh/none-Hi-Kn010G3/L0205-k0 (antibody, human IgG1, kappa, L234A L235A, N297A)
heavy: B3 heavy
chain: B3 chain
light: B3 light with P28S, L29P, S61W
notes: single-arm

Kd: 0.0287 µM
B23: TR01H040-E22Hh/none-Hi-Kn010G3/L0200-k0 (antibody, human IgG1, kappa, L234A L235A, N297A)
heavy: B3 heavy
chain: B3 chain
light: B3 light with S25P, P28S, L29P
notes: single-arm

Further lines, the binder ahead of its results:

B1: TR01H036-E22Hh/none-Hi-Kn010G3/L0000-k0 (antibody, human IgG1, kappa, L234A L235A, N297A)
heavy: B3 heavy with D53G, Q56N, A111Y
chain: B3 chain
light: B3 light with P28S
notes: single-arm
Kd: 0.065 µM

B2: TR01H040-E22Hh/none-Hi-Kn010G3/L0217-k0 (antibody, human IgG1, kappa, L234A L235A, N297A)
heavy: B3 heavy
chain: B3 chain
light: B3 light with S25P, P28S, S61R
notes: single-arm
Kd: 0.0207 µM

B4: TR01H040-E22Hh/none-Hi-Kn010G3/L0218-k0 (antibody, human IgG1, kappa, L234A L235A, N297A)
heavy: B3 heavy
chain: B3 chain
light: B3 light with P28S, S61R, G94Y
notes: single-arm
Kd: 0.0082 µM

B5: TR01H040-E22Hh/none-Hi-Kn010G3/L0214-k0 (antibody, human IgG1, kappa, L234A L235A, N297A)
heavy: B3 heavy
chain: B3 chain
light: B3 light with L29P, S61R
notes: single-arm
Kd: 0.0202 µM

B6: TR01H040-E22Hh/none-Hi-Kn010G3/L0215-k0 (antibody, human IgG1, kappa, L234A L235A, N297A)
heavy: B3 heavy
chain: B3 chain
light: B3 light with L29P, L38I
notes: single-arm
Kd: 0.0337 µM

B7: TR01H040-E22Hh/none-Hi-Kn010G3/L0206-k0 (antibody, human IgG1, kappa, L234A L235A, N297A)
heavy: B3 heavy
chain: B3 chain
light: B3 light with P28S, L29P, G94Y
notes: single-arm
Kd: 0.0029 µM

B9: TR01H040-E22Hh/none-Hi-Kn010G3/L0216-k0 (antibody, human IgG1, kappa, L234A L235A, N297A)
heavy: B3 heavy
chain: B3 chain
light: B3 light with S61R
notes: single-arm
Kd: 0.0253 µM

B13: TR01H040-E22Hh/none-Hi-Kn010G3/L0202-k0 (antibody, human IgG1, kappa, L234A L235A, N297A)
heavy: B3 heavy
chain: B3 chain
light: B3 light with P28S, L29P, N35W
notes: single-arm
Kd: 0.0619 µM

B15: TR01H038-E22Hh/none-Hi-Kn010G3/L0000-k0 (antibody, human IgG1, kappa, L234A L235A, N297A)
heavy: B3 heavy with Q56N, A111I
chain: B3 chain
light: B3 light with P28S
notes: single-arm
Kd: 0.0124 µM

B16: TR01H040-E22Hh/none-Hi-Kn010G3/L0209-k0 (antibody, human IgG1, kappa, L234A L235A, N297A)
heavy: B3 heavy
chain: B3 chain
light: B3 light with P28S, L29P, L38I, G94Y
notes: single-arm
Kd: 0.00425 µM

B17: TR01H040-E22Hh/none-Hi-Kn010G3/L0208-k0 (antibody, human IgG1, kappa, L234A L235A, N297A)
heavy: B3 heavy
chain: B3 chain
light: B3 light with P28S, L29P, S61W, G94Y
notes: single-arm
Kd: 0.00416 µM

B18: TR01H040-E22Hh/none-Hi-Kn010G3/L0201-k0 (antibody, human IgG1, kappa, L234A L235A, N297A)
heavy: B3 heavy
chain: B3 chain
light: B3 light with L29P
notes: single-arm
Kd: 0.0281 µM

B19: TR01H040-E22Hh/none-Hi-Kn010G3/L0203-k0 (antibody, human IgG1, kappa, L234A L235A, N297A)
heavy: B3 heavy
chain: B3 chain
light: B3 light with P28S, L29P, L38I
notes: single-arm
Kd: 0.0324 µM

B20: TR01H040-E22Hh/none-Hi-Kn010G3/L0212-k0 (antibody, human IgG1, kappa, L234A L235A, N297A)
heavy: B3 heavy
chain: B3 chain
light: B3 light with S25P, P28S, L29P, G94Y
notes: single-arm
Kd: 0.00217 µM

B21: TR01H039-E22Hh/none-Hi-Kn010G3/L0000-k0 (antibody, human IgG1, kappa, L234A L235A, N297A)
heavy: B3 heavy with A111I
chain: B3 chain
light: B3 light with P28S
notes: single-arm
Kd: 0.0261 µM

B24: TR01H040-E22Hh/none-Hi-Kn010G3/L0204-k0 (antibody, human IgG1, kappa, L234A L235A, N297A)
heavy: B3 heavy
chain: B3 chain
light: B3 light with P28S, L29P, S61R
notes: single-arm
Kd: 0.0221 µM
